Assay results from US20240084003A1 (SIMCERE ZAIMING PHARMACEUTICAL, published 2024).
Positions count from the first letter of the chain named.

T1: monkey CD22 protein (ACROBiosystems, catalog number SI2-R52Ha) (monkey, UniProt F6W485 20-688)
T1 construct: commercial protein; also called monkey CD22-ECD; monkey CD22-ECD-His
T1 sequence: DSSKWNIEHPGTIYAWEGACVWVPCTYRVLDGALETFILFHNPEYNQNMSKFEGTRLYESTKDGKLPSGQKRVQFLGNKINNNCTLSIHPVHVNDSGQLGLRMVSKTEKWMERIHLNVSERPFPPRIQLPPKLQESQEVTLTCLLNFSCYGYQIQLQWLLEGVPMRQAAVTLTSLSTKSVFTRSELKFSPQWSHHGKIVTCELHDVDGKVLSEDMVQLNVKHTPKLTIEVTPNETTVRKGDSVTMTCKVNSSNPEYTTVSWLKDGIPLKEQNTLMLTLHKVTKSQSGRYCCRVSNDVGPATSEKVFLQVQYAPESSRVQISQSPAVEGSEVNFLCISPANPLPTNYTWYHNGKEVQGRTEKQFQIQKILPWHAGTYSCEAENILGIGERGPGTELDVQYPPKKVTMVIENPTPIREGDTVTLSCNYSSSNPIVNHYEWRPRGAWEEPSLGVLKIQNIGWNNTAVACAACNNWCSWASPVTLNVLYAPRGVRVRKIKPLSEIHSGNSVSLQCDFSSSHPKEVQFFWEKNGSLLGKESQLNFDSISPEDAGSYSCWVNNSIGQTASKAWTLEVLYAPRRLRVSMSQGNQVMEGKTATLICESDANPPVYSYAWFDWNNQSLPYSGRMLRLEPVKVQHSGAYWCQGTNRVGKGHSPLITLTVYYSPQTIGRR

B1: F2.55.1 (antibody, human IgG1, lambda, V domains shown)
VH: QVTLKESGPGILQPSQTLSLTCSFSGFSLSTFPLGVGWIRQPSGKGLEWLAHVWWNDDDYYNPALKSRLTISKDTSNTRVFLSVASVDTAETATYYCARLNWDRWYFDVWGTGTTVTVSS
VL: QLVLTQSSSASFSLGASAKLTCTLSSQHSAYTVEWYQQQPLKPPKYVMELKKDGSHSTGDGIPDRFSGSSSGADRYLSISNIQPEDEAIYICGVGDTVKEQFVFGGGTKVTVLG
notes: human-murine chimeric IgG1 lambda; VL name legible
B2: F2.343.16 (antibody, human IgG1, lambda, V domains shown)
VH: QVQLKQSGPGLVQPSQSLSITCTVSGFSLTGYGVQWVRQSPGKGLEWLGVIWGGGGTDYNAAFISRLNIIKDNSKSQVFFKMNSLQADDTAIYYCARYSKYGHFDVWGTGTAVTVSS
VL: QAVVTQESALTTSPGETVTLTCRSSTGAVTTSNYANWVQEKPDHLFTGLIGGTYNRVPGVPARFSGSLIGDKAALTITGAQTEDEAIYFCALWYSNHFWVFGGGTKLTVLG
notes: as for B1
B3: F2.70.2 (antibody, human IgG1, lambda, V domains shown)
VH: EVQLVESGGGLVKPGGSLKLSCAASGFTFSDYGMNWFRQAPEKGLEWVAYISRGSHTIYYADTVKGRFTISRDNAKNTLFLQMTSLRSNDTAMYYCVRMAGYYAMDYWGQGTSVTVSS
VL: QLVLTQSSSASFSLGASAKLTCTLSSQHSSYIIEWYQQQPLKPPKYVMELKKDGSHSTGDGIPDRFSGSSSGADRYLSISNIQPEDEAIYICGVGDTIKEQFVYVFGGGTKVTVLG
notes: human-murine chimeric IgG1 lambda
B4: F2.173.9 (antibody, human IgG1, lambda, V domains shown)
VH: EVQLVESGGDLVKPGESLKLSCEASGFTFSNYAMSWVRQTPDRRLEWVATISSIGSFTYYSDSVKGRFTISRDNVKSTLHLQMNNLKSGDTAIYFCARLGVYFDSWGQGTTLTVSS
VL: B3 VL with S30T, I32T, L41H, Y46F, L50I, S57Y, A88T, G95S, T97M, E100D
notes: as for B3
B5: F2.180.16 (antibody, human IgG1, lambda, V domains shown)
VH: EVKLVESGGGLVLPGGSLKISCAASGFTFSDYYMYWIRQTPDKRLEWVAYISNTGYSTFYPDSVKGRFTVSRDNAKNTLYLQMSRLQSEDTAMYYCARHGILYAMDYWGQGTSVTVSS
VL: B3 VL with L2P, H28Y, S30T, I32T, E34G, K52H, H56R, S57H, I89T, V103M
notes: as for B3
B6: F2.104.10 (antibody, human IgG1, lambda, V domains shown)
VH: B3 VH with L11F, K76E, V114L
VL: B3 VL with L50V, P84S
notes: as for B3
B7: HA22-hIgG1 (antibody, V domains shown)
VH: EVQLVESGGGLVKPGGSLKLSCAASGFAFSIYDMSWVRQTPEKCLEWVAYISSGGGTTYYPDTVKGRFTISRDNAKNTLYLQMSSLKSEDTAMYYCARHSGYGTHWGVLFAYWGQGTLVTVSA
VL: DIQMTQTTSSLSASLGDRVTISCRASQDISNYLNWYQQKPDGTVKLLIYYTSILHSGVPSRFSGSGSGTDYSLTISNLEQEDFATYFCQQGNTLPWTFGCGTKLEIKR
B8: F2.121.9 (antibody, human IgG1, lambda, V domains shown)
VH: EVQLVESGGGLVKPGGSLKLSCAASGFTFSDYVMSWIRQTPEKRLEWVATISDAGSYTFYPDNLKGRFTISRDNAKNNLYLQMNHLTSEDTAFYYCAIIYFGNYGGYWGQGTLVTVSV
VL: QAVVTQESALTTSPGGTVVLTCRSNTGAVTTSNYANWVQEKPDHLFTGLIGGTSNRAPGVPVRFSGSLIGDKAALTITGAQTEDDAMYFCALWYSTHWVFGGGTKLTVLG
notes: as for B3
B9: F2.205.9 (antibody, human IgG1, lambda, V domains shown)
VH: QVTLKESGPGILQPSQTLSLTCSFSGFSLSTSGMGVGWIRQPSGKGLEWLAHIWWDDDEYYNPALKSRLTISKDTSKNQVFLKIANVDTADTATYYCARISIPYGYYDWFFDVWGTGTTVTVSA
VL: QAVVTQESALTTSPGETVTLTCRSSTGAVTTRNYANWVQEKPDHLFTGLIGGTNNRAPGVPARFSGSLIGDKAALTITGAQTEDEAIYFCALWYSNHFIFGSGTKVTVLG
notes: as for B1
B10: F2.151.13 (antibody, human IgG1, lambda, V domains shown)
VH: QVHLQQPGTELMKPGASVKLSCKATGYTFRDYWLEWVKQRPGHGLEWIGEILPGSGNAYYNEKFKGKATFTADTSSNTAYMQLSSLTTEDSAIYYCARVYSNWYFDAWGKGTTVTVSS
VL: B9 VL with R32S, R56Q, T78S, Y94F, F98W, I99V, S102G, V106L
notes: as for B3

Target: T2, CD22 on cynomolgus monkey peripheral blood B cells (cynomolgus monkey (Macaca fascicularis))
T2 construct: whole, on cells; also called cynomolgus monkey B cells
Assay: FACS, cynomolgus PBMC, CD20+ B cells, antibody 10 nM
Method in brief: (§1)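 Readout: % chimeric-antibody-positive cells among CD20+ gated B cells, FACS. Cyno PBMC (Ficoll) in PBS/1% BSA; test Ab plus BV605 anti-CD20, 1 h RT; APC anti-hIgG Fc secondary, 30 min RT dark; washes between steps.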

| Binder | Proportion of chimeric antibody positive cells to B cells (%) |
| --- | --- |
| B1 | 28 |
| B2 | 21 |
| B3 | 20 |
| B4 | 43 |
| B5 | 20 |
| B6 | 21 |
| B7 | 89 |
| B8 | 56 |
| B9 | 41 |
| B10 | 48 |

Target: T1, monkey CD22 protein (ACROBiosystems, …)
Assay: ELISA, coated monkey CD22 protein, antibody 0.00001 nM
Method in brief: (§2)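 Read-out is TMB absorbance after a 30 min room-temperature development stopped with 1.0 N HCl. It reflects chimeric antibody bound to plate-coated CD22 (2 μg/mL), detected with an HRP-labelled secondary antibody. Antibody and secondary incubations each ran 2 h at 37° C.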

| Binder | OD450 [OD450] |
| --- | --- |
| B1 | 0.06 |
| B2 | 0.05 |
| B3 | 0.06 |
| B4 | 0.06 |
| B5 | 0.05 |
| B6 | 0.05 |
| B7 | 0.08 |
| B8 | 0.05 |
| B9 | 0.08 |
| B10 | 0.07 |

Target: T1, monkey CD22 protein (ACROBiosystems, …)
Assay: ELISA, coated monkey CD22 protein, antibody 0.01 nM
Method in brief: as §2

| Binder | OD450 [OD450] |
| --- | --- |
| B1 | 0.85 |
| B2 | 0.05 |
| B3 | 0.06 |
| B4 | 0.38 |
| B5 | 0.05 |
| B6 | 0.06 |
| B7 | 1.54 |
| B8 | 0.13 |
| B9 | 1.78 |
| B10 | 0.94 |

Target: T2, CD22 on cynomolgus monkey peripheral …
Assay: FACS, cynomolgus PBMC, CD20+ B cells, antibody 1 nM
Method in brief: as §1

| Binder | Proportion of chimeric antibody positive cells to B cells (%) |
| --- | --- |
| B1 | 22 |
| B2 | 21 |
| B3 | 20 |
| B4 | 19 |
| B5 | 16 |
| B6 | 19 |
| B7 | 33 |
| B8 | 27 |
| B9 | 40 |
| B10 | 38 |

Target: T2, CD22 on cynomolgus monkey peripheral …
Assay: FACS, cynomolgus PBMC, CD20+ B cells, antibody 100 nM
Method in brief: as §1

| Binder | Proportion of chimeric antibody positive cells to B cells (%) |
| --- | --- |
| B1 | 66 |
| B2 | 22 |
| B3 | 34 |
| B4 | 71 |
| B5 | 23 |
| B6 | 26 |
| B7 | 93 |
| B8 | 64 |
| B9 | 46 |
| B10 | 60 |

Target: T1, monkey CD22 protein (ACROBiosystems, …)
Assay: ELISA, coated monkey CD22 protein, antibody 0.0001 nM
Method in brief: as §2

| Binder | OD450 [OD450] |
| --- | --- |
| B1 | 0.07 |
| B2 | 0.05 |
| B3 | 0.06 |
| B4 | 0.06 |
| B5 | 0.05 |
| B6 | 0.05 |
| B7 | 0.14 |
| B8 | 0.05 |
| B9 | 0.16 |
| B10 | 0.1 |

Target: T1, monkey CD22 protein (ACROBiosystems, …)
Assay: ELISA, coated monkey CD22 protein, antibody 0.001 nM
Method in brief: as §2

| Binder | OD450 [OD450] |
| --- | --- |
| B1 | 0.18 |
| B2 | 0.05 |
| B3 | 0.07 |
| B4 | 0.12 |
| B5 | 0.05 |
| B6 | 0.05 |
| B7 | 0.47 |
| B8 | 0.06 |
| B9 | 0.63 |
| B10 | 0.27 |

Target: T1, monkey CD22 protein (ACROBiosystems, …)
Assay: ELISA, coated monkey CD22 protein, antibody 0.1 nM
Method in brief: as §2

| Binder | OD450 [OD450] |
| --- | --- |
| B1 | 1.73 |
| B2 | 0.05 |
| B3 | 0.06 |
| B4 | 1.25 |
| B5 | 0.05 |
| B6 | 0.05 |
| B7 | 2.24 |
| B8 | 0.34 |
| B9 | 2.21 |
| B10 | 1.6 |

Target: T1, monkey CD22 protein (ACROBiosystems, …)
Assay: ELISA, coated monkey CD22 protein, antibody 100 nM
Method in brief: as §2

| Binder | OD450 [OD450] |
| --- | --- |
| B1 | 1.91 |
| B2 | 0.08 |
| B3 | 0.11 |
| B4 | 1.18 |
| B5 | 0.06 |
| B6 | 0.07 |
| B7 | 2.2 |
| B8 | 0.72 |
| B9 | 2.33 |
| B10 | 2.77 |

Target: T1, monkey CD22 protein (ACROBiosystems, …)
Assay: ELISA, coated monkey CD22 protein, antibody 10 nM
Method in brief: as §2

| Binder | OD450 [OD450] |
| --- | --- |
| B1 | 2 |
| B2 | 0.06 |
| B3 | 0.08 |
| B4 | 1.12 |
| B5 | 0.06 |
| B6 | 0.07 |
| B7 | 2.41 |
| B8 | 0.56 |
| B9 | 2.28 |
| B10 | 1.89 |
